In the Human Domainome abundance scans (Beltran et al. 2025) one finds abundance fitness data, which are given here for 39 variants.

Sequences and labels used below:
B1: POU domain, class 2, transcription factor 1, residues 285 to 354; numbered along this chain, P14859 (parent)
chain: LEELEQFAKTFKQRRIKLGFTQGDVGLAMGKLYGNDFSQTTISRFEALNLSFKNMCKLKPLLEKWLNDAE

± gives the uncertainty stated by the source.

In this series the parent is B1. Put plainly: abundance fitness (aPCA) (normalised: wild type 0, dead -1); higher = more abundant; growth selection in yeast, the domain comes from the species named. Particulars: Homo sapiens.
As for LEELEQGAKTFKQRRIKLGFTQGDVGLAMGKLYGNDFSQTTISRFEALNLSFKNMCKLKPLLEKWLNDAE, the abundance fitness was -0.07 ± 0.28. Regarding LEELEQWAKTFKQRRIKLGFTQGDVGLAMGKLYGNDFSQTTISRFEALNLSFKNMCKLKPLLEKWLNDAE, the abundance fitness was 0.123 ± 0.29.

With LEELEQRAKTFKQRRIKLGFTQGDVGLAMGKLYGNDFSQTTISRFEALNLSFKNMCKLKPLLEKWLNDAE, the abundance fitness was -0.437 ± 0.11.

With LEELEQMAKTFKQRRIKLGFTQGDVGLAMGKLYGNDFSQTTISRFEALNLSFKNMCKLKPLLEKWLNDAE, the abundance fitness was -0.263 ± 0.26. The same measure for LEELEQLAKTFKQRRIKLGFTQGDVGLAMGKLYGNDFSQTTISRFEALNLSFKNMCKLKPLLEKWLNDAE: -0.297 ± 0.14.

For LEESEQFAKTFKQRRIKLGFTQGDVGLAMGKLYGNDFSQTTISRFEALNLSFKNMCKLKPLLEKWLNDAE, the abundance fitness is -0.263 ± 0.21.

As for LEEVEQFAKTFKQRRIKLGFTQGDVGLAMGKLYGNDFSQTTISRFEALNLSFKNMCKLKPLLEKWLNDAE, the abundance fitness is -0.145 ± 0.14. The same measure for LEEMEQFAKTFKQRRIKLGFTQGDVGLAMGKLYGNDFSQTTISRFEALNLSFKNMCKLKPLLEKWLNDAE: -0.022 ± 0.23; for LEELEQFARTFKQRRIKLGFTQGDVGLAMGKLYGNDFSQTTISRFEALNLSFKNMCKLKPLLEKWLNDAE: 0.011 ± 0.015; for LEELNQFAKTFKQRRIKLGFTQGDVGLAMGKLYGNDFSQTTISRFEALNLSFKNMCKLKPLLEKWLNDAE: -0.059 ± 0.059. The same measure for LEELYQFAKTFKQRRIKLGFTQGDVGLAMGKLYGNDFSQTTISRFEALNLSFKNMCKLKPLLEKWLNDAE: -0.071 ± 0.054; for LEELSQFAKTFKQRRIKLGFTQGDVGLAMGKLYGNDFSQTTISRFEALNLSFKNMCKLKPLLEKWLNDAE: -0.039 ± 0.031. With LEELQQFAKTFKQRRIKLGFTQGDVGLAMGKLYGNDFSQTTISRFEALNLSFKNMCKLKPLLEKWLNDAE, the abundance fitness was -0.125 ± 0.053.

As to LEELGQFAKTFKQRRIKLGFTQGDVGLAMGKLYGNDFSQTTISRFEALNLSFKNMCKLKPLLEKWLNDAE, the abundance fitness was -0.019 ± 0.021. The same measure for LEELHQFAKTFKQRRIKLGFTQGDVGLAMGKLYGNDFSQTTISRFEALNLSFKNMCKLKPLLEKWLNDAE: -0.116 ± 0.077; for LEELLQFAKTFKQRRIKLGFTQGDVGLAMGKLYGNDFSQTTISRFEALNLSFKNMCKLKPLLEKWLNDAE: -0.022 ± 0.022. For the variant LEELRQFAKTFKQRRIKLGFTQGDVGLAMGKLYGNDFSQTTISRFEALNLSFKNMCKLKPLLEKWLNDAE, the abundance fitness is -0.034 ± 0.024. The same measure for LEELDQFAKTFKQRRIKLGFTQGDVGLAMGKLYGNDFSQTTISRFEALNLSFKNMCKLKPLLEKWLNDAE: -0.072 ± 0.05; for LEELFQFAKTFKQRRIKLGFTQGDVGLAMGKLYGNDFSQTTISRFEALNLSFKNMCKLKPLLEKWLNDAE: -0.13 ± 0.046. The same measure for LEELAQFAKTFKQRRIKLGFTQGDVGLAMGKLYGNDFSQTTISRFEALNLSFKNMCKLKPLLEKWLNDAE: -0.022 ± 0.026. With LEELTQFAKTFKQRRIKLGFTQGDVGLAMGKLYGNDFSQTTISRFEALNLSFKNMCKLKPLLEKWLNDAE the figure was -0.004 ± 0.041; with LEELPQFAKTFKQRRIKLGFTQGDVGLAMGKLYGNDFSQTTISRFEALNLSFKNMCKLKPLLEKWLNDAE, -0.571 ± 0.075; with LEELIQFAKTFKQRRIKLGFTQGDVGLAMGKLYGNDFSQTTISRFEALNLSFKNMCKLKPLLEKWLNDAE, -0.1 ± 0.08. Take LEELKQFAKTFKQRRIKLGFTQGDVGLAMGKLYGNDFSQTTISRFEALNLSFKNMCKLKPLLEKWLNDAE: the abundance fitness is -0.017 ± 0.04. With LEELCQFAKTFKQRRIKLGFTQGDVGLAMGKLYGNDFSQTTISRFEALNLSFKNMCKLKPLLEKWLNDAE the figure was -0.114 ± 0.037; with LEELMQFAKTFKQRRIKLGFTQGDVGLAMGKLYGNDFSQTTISRFEALNLSFKNMCKLKPLLEKWLNDAE, -0.028 ± 0.037; with LEELEQFAKHFKQRRIKLGFTQGDVGLAMGKLYGNDFSQTTISRFEALNLSFKNMCKLKPLLEKWLNDAE, 0.019 ± 0.063. With LEELEQFAKMFKQRRIKLGFTQGDVGLAMGKLYGNDFSQTTISRFEALNLSFKNMCKLKPLLEKWLNDAE the figure was -0.052 ± 0.029; with LEELEQFAKGFKQRRIKLGFTQGDVGLAMGKLYGNDFSQTTISRFEALNLSFKNMCKLKPLLEKWLNDAE, -0.047 ± 0.026; with LEELEQFAKPFKQRRIKLGFTQGDVGLAMGKLYGNDFSQTTISRFEALNLSFKNMCKLKPLLEKWLNDAE, -0.945 ± 0.073. The same measure for LEELEQFAKEFKQRRIKLGFTQGDVGLAMGKLYGNDFSQTTISRFEALNLSFKNMCKLKPLLEKWLNDAE: 0.04 ± 0.041; for LEELEQFAKIFKQRRIKLGFTQGDVGLAMGKLYGNDFSQTTISRFEALNLSFKNMCKLKPLLEKWLNDAE: 0.01 ± 0.061.

Consider LEELEQFAKFFKQRRIKLGFTQGDVGLAMGKLYGNDFSQTTISRFEALNLSFKNMCKLKPLLEKWLNDAE, for which the abundance fitness came to 0.023 ± 0.039. The same measure for LEELEQFAKQFKQRRIKLGFTQGDVGLAMGKLYGNDFSQTTISRFEALNLSFKNMCKLKPLLEKWLNDAE: -0.012 ± 0.04; for LEELEQFAKLFKQRRIKLGFTQGDVGLAMGKLYGNDFSQTTISRFEALNLSFKNMCKLKPLLEKWLNDAE: -0.013 ± 0.019. With LEELEQFAKCFKQRRIKLGFTQGDVGLAMGKLYGNDFSQTTISRFEALNLSFKNMCKLKPLLEKWLNDAE the figure was -0.041 ± 0.036. The same measure for LEELEQFAKKFKQRRIKLGFTQGDVGLAMGKLYGNDFSQTTISRFEALNLSFKNMCKLKPLLEKWLNDAE: -0.014 ± 0.037; for LEELEQFAKNFKQRRIKLGFTQGDVGLAMGKLYGNDFSQTTISRFEALNLSFKNMCKLKPLLEKWLNDAE: 0.004 ± 0.065; for LEELEQFAKDFKQRRIKLGFTQGDVGLAMGKLYGNDFSQTTISRFEALNLSFKNMCKLKPLLEKWLNDAE: -0.08 ± 0.059.
